Measured values taken from US20190194313A1 (JOINT STOCK COMPANY BIOCAD, published 2019).

Columns and labels:
Cynomolgus sIL6R = target: T1, Cynomolgus sIL6R (cynomolgus, UniProt A0A2K5WN54 60-396); assay: BLI, Octet Red 96, BCD89 immobilised on AR2G sensors, receptor titrated from 126 nM to 2 nM, 1:1 model
T1 construct: extracellular domain; also called IL-6sR of a cynomolgus; cynomolgus IL-6R alpha subunit
T1 sequence: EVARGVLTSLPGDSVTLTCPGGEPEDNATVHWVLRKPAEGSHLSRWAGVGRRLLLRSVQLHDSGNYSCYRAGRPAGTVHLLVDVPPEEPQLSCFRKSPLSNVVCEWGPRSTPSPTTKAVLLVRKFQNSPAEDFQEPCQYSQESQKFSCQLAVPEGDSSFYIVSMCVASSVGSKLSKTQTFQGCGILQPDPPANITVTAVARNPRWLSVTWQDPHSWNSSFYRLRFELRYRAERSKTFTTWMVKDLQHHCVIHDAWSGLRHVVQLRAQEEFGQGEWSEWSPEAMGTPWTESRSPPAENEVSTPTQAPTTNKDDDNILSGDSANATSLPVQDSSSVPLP
From the text: (§1) The interaction of the selected anti-IL6R with interleukin-6 receptors of cynomolgus, guinea pig, dog and mouse was examined with ELISA (FIG. 11, 12). The binding affinity constants of BCD89 antibody to IL-6sR alpha subunit of a human, cynomolgus, guinea pig, dog and mouse were obtained with Octet Red 96 (by ForteBio). BCD89 was nonspecifically immobilized onto the surface of amino reactive sensors of the second generation (AR2G) using standard protocol according to manufacturer's instruction for preparation and immobilization of AR2G sensors. Analysis was conducted at 30° C. using PBS comprising 0.1% Tween-20 and 0.1% BSA as a working buffer. Titration of IL-6R of a human, cynomolgus, guinea pig, dog, rabbit and mouse was performed using a running buffer from concentration of 126 nM to 2 nM, spacing 2.
(§2) Binding curves, after subtracting a reference signal, were analyzed using Octet Data Analysis software (Version 7.0) in accordance with the standard procedure and using 1:1 interaction model.

[1] = target: T2, Human sIL6R (recombinant IL-6sR alpha subunit of a human, Example 13) (human, UniProt P08887 20-365); assay: as above
T2 construct: extracellular domain; also called recombinant IL-6R of a human; human IL-6R alpha subunit
T2 sequence (looked up): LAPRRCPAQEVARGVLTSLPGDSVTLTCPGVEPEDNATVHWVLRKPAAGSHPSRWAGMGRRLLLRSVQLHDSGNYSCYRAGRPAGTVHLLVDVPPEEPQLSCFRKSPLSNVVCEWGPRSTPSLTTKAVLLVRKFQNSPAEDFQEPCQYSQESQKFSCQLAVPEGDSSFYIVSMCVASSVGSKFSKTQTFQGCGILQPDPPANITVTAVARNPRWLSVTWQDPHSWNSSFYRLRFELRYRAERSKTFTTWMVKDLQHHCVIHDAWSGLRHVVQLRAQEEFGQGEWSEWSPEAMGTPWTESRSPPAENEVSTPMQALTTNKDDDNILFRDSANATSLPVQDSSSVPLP
From the text: as §1, §2

Guinea Pig sIL6R = target: T3, Guinea Pig sIL6R (guinea pig); assay: as above
T3 construct: extracellular domain; also called guinea pig IL-6R; guinea pig IL-6R alpha subunit
From the text: as §1, §2

Mouse sIL6R = target: T4, Mouse sIL6R (mouse, UniProt P22272 20-364); assay: BLI, Octet Red 96, BCD89 immobilised on AR2G sensors; Table 2 prints '-' for KD
T4 construct: extracellular domain; also called mouse receptor; mouse IL-6R
T4 sequence (looked up): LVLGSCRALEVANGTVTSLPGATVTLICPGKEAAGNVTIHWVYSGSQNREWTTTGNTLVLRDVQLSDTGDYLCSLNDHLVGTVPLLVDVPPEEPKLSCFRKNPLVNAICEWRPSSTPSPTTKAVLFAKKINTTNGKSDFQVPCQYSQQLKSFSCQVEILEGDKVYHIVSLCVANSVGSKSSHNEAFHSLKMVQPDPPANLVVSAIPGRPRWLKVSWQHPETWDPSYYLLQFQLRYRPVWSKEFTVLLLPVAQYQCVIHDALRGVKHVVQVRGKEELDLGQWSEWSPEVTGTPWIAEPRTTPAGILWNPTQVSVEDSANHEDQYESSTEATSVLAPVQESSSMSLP
From the text: as §1, §2

Kd (Cynomolgus sIL6R): 2.4 nM | Kd [1]: 0.663 nM | Kd (Guinea Pig sIL6R): 306 nM | binding result (Mouse sIL6R): no binding
B1: BCD089 antibody (anti-IL-6sR) (antibody, IgG1, V domains shown)
VH: QVQLVQSGGGLVQPGGSLRLSCAASGFTFSSYYMSWVRQAPGKGLEWVSGIYSDGTTHYGDSVKGRFTISRDNAKNTVYLQLNSLRAEDTAMYYCAKGAGPTWWYALDAWGQGTLVTVSS
VL: DIQLTQSPSSVSVSVGERVTIDCKSSQSVLSASNTYLNWYQQKPGQAPQLLIYYASTRESGVPDRFSGSGSGTDFTLTISSLQAEDAAVYYCQQAYRAPVTFGQGTKLEIKR
notes: None of these passages names BCD089; also called BCD89; BCD-BCD-089 IgG1
